Measured values taken from paper doi:10.1101/2020.08.05.236513.

Biological target: H-2 I-A^b class II MHC molecule (mouse (endogenous in LB27.4))
Assay: radioligand binding

fold lower binding than the P. goldsteinii epitope: 3 fold
Binder: Ac-KWDYRESRVWVNDQ-NH2 [14-mer N-acetylated P. merdae β-hex peptide]
